Series [1] concerns anti-g10 serum. Description: Immunoprecipitation of [32P]-labeled in vitro transcribed RNA with anti-g10 serum. The format is binding, rabbit. Particulars: FIG. 4; compared with protein A Sepharose beads alone and pre-immune serum. How it is done: Various antisera were used to precipitate either [32P] labeled in vitro transcribed D10 RNA or control transcripts. Bound RNA was analyzed on a denaturing 6% polyacrylamide gel by autoradiography. Lanes 1-4 are precipitations of D10 RNA with the following antisera: 1, anti-g10 serum; 2, preimmune serum; 3, no antibody; 4, anti-g10 serum. Other transcripts were precipitated with the anti-g10 serum as follows: 5, a control RNA identical to the D10 epitope but with loop sequence 5′-CACCAUAUAA-3′(SEQ ID NO:5); 6, an unrelated RNA; 7, an RNA containing the loop sequence 5′-CUGACCCCGU-3′(SEQ ID NO:6); 8-11, supernatants from the immunoprecipitations shown in lanes 4-7, diluted to approximate radioactive equivalents.
In vitro transcribed [^32P] radiolabeled RNA was immunoprecipitated with anti-g10 serum or with an anti-U1 RNA serum (EW). Bound RNA was analyzed using a denaturing 6% acrylamide gel and autoradiography: Panel A: The D10 DNA construct (FIG. 2) was cloned into the BamHI site of PGEM-3zf (+) to produce tagged vector RNA, and transcripts with different 3′termini were generated with SP6 RNA polymerase. […] For unexplained reasons, a small amount of endogenous U1 RNA was detected in the presence of total HeLa cell extract (lanes 12-14). […]

In series [2] the test system is anti-g10 serum. Description: Selection of RNA from degenerate pool by immunoprecipitation with anti-g10 serum. It is filed as binding, rabbit. Particulars: three cycles, high stringency washing (0.5 M urea). The source says:
Whereas the g10 peptide is a useful epitope tag for analyzing complexes containing protein, an RNA epitope tag would be equally useful for studying complexes containing RNA. The anti-g10 serum was presented with a degenerate pool of RNA containing 1,048,576 unique species, assuming incorporation of four different nucleotides at 10 randomized loop positions (FIG. 2). These RNAs were transcribed from approximately 1×10^11 molecules of degenerate oligodeoxynucleotide template (D. Tsai et al., Nucl. Acids Res. 19, 4931-4936 (1991)). Assuming that most templates are transcribed at least once, all possible RNA species should be redundantly represented. RNA was prepared by in vitro transcription of PCR-generated templates in accordance with known techniques (D. Tsai et al., Nucl. Acids Res. 19, 4931-4936 (1991)). The transcripts were immunoprecipitated with the anti-g10 serum as follows: Protein A Sepharose beads (Sigma, 4 mg per […]) were washed in NT2 buffer (50 mM Tris [pH 7.4], 150 mM NaCl, 0.05% Nonidet P-40) (C. Query et al., Cell 57, 89-101 (1989)), mixed with […] of anti-g10 serum, incubated on ice for 10 min, and washed in NT2. […]

B1: D10 RNA: single RNA species selected from the degenerate pool by anti-g10 serum (SEQ ID NO:3); U1 stem II with loop UGGUGGAGCA (nucleic acid)
chain: GGGCCACCAACGACAUUGGGCGAGGCUUAUCCUGGUGGAGCAGGAUGUGCUGACCCCGUUGAUAUAAAUAGUGCCCAUGGAUC
modifications: chemistry not given here
notes: U1 stem II with loop UGGUGGAGCA
Consider B1, for which the “binding / recognition of RNA by anti-g10 serum” value in the series with anti-g10 serum [1] is given as “bound only to the anti-g10 serum”. For the same molecule, the “isolates obtained after antibody selection” value with anti-g10 serum [2] is 45 out of 45.
